For the test, the target named is T1, EpCAM (epithelial cell adhesion molecule), human tumor antigen, on LS174T colon carcinoma cells (human, UniProt P16422 24-314).
T1 sequence (looked up): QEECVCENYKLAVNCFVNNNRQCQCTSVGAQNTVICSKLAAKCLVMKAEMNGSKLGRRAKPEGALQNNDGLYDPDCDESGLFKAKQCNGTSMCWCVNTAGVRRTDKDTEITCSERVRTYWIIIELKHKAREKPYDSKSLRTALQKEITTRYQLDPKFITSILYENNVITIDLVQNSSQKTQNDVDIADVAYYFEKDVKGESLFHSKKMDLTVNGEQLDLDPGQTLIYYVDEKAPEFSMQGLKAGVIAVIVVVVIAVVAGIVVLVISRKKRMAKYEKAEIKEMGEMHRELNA
Briefly: cell-based or functional assay.

These results are taken from US20060063234A1 (CRUCELL HOLLAND B V, published 2006).

B1: anti-EpCAM IgM (PER.C6 produced recombinant human IgM, encoded by pEpcamIgM) (antibody)
light: QVQLVQSGAEVKKPGSSVRVSCKASGGTFSSYAISWVRQAPGQGLEWMGGIIPIFGTANYAQKFQGRVTITADESTSTAYMELSSLRSEDTAVYYCARDPFLHYWGQGTLVTVSTGSASAPTLFPLVSCENSPSDTSSVAVGCLAQDFLPDSITFSWKYKNNSDISSTRGFPSVLRGGKYAATSQVLLPSKDVMQGTDEHVVCKVQHPNGNKEKNVPLPVIAELPPKVSVFVPPRDGFFGNPRKSKLICQATGFSPRQIQVSWLREGKQVGSGVTTDQVQAEAKESGPTTYKVTSTLTIKESDWLSQSMFTCRVDHRGLTFQQNASSMCVPDQDTAIRVFAIPPSFASIFLTKSTKLTCLVTDLTTYDSVTISWTRQNGEAVKTHTNISESHPNATFSAVGEASICEDDWNSGERFTCTVTHTDLPSPLKQTISRPKGVALHRPDVYLLPPAREQLNLRESATITCLVTGFSPADVFVQWMQRGQPLSPEKYVTSAPMPEPQAPGRYFAHSILTVSEEEWNTGETYTCVVAHEALPNRVTERTVDKSTGKPTLYNVSLVMSDTAGTCY
heavy: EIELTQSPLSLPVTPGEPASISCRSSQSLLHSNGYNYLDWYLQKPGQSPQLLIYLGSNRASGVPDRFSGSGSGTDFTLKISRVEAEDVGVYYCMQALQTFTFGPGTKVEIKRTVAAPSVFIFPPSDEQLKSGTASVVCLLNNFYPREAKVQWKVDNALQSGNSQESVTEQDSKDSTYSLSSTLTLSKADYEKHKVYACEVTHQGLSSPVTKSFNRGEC
Regarding B1, the “complement dependent cytotoxicity on LS174T cells: potency relative to anti-EpCAM IgG” value is roughly 10 fold.
